Data on five molecules can be found in publication PMC3642328, “Ataxia Telangiectasia-Mutated (ATM) Kinase Activity Is Regulated by ATP-driven Conformational Changes in the Mre11/Rad50/Nbs1 (MRN) Complex*^([image sbox.jpg])” (The Journal of Biological Chemistry, 2013).

Sequences and labels used below:
B3: Nbs1 (wild-type) (natural protein, human, UniProt O60934 1-754, looked up)
chain: MWKLLPAAGPAGGEPYRLLTGVEYVVGRKNCAILIENDQSISRNHAVLTANFSVTNLSQTDEIPVLTLKDNSKYGTFVNEEKMQNGFSRTLKSGDGITFGVFGSKFRIEYEPLVACSSCLDVSGKTALNQAILQLGGFTVNNWTEECTHLVMVSVKVTIKTICALICGRPIVKPEYFTEFLKAVESKKQPPQIESFYPPLDEPSIGSKNVDLSGRQERKQIFKGKTFIFLNAKQHKKLSSAVVFGGGEARLITEENEEEHNFFLAPGTCVVDTGITNSQTLIPDCQKKWIQSIMDMLQRQGLRPIPEAEIGLAVIFMTTKNYCDPQGHPSTGLKTTTPGPSLSQGVSVDEKLMPSAPVNTTTYVADTESEQADTWDLSERPKEIKVSKMEQKFRMLSQDAPTVKESCKTSSNNNSMVSNTLAKMRIPNYQLSPTKLPSINKSKDRASQQQQTNSIRNYFQPSTKKRERDEENQEMSSCKSARIETSCSLLEQTQPATPSLWKNKEQHLSENEPVDTNSDNNLFTDTDLKSIVKNSASKSHAAEKLRSNKKREMDDVAIEDEVLEQLFKDTKPELEIDVKVQKQEEDVNVRKRPRMDIETNDTFSDEAVPESSKISQENEIGKKRELKEDSLWSAKEISNNDKLQDDSEMLPKKLLLTEFRSLVIKNSTSRNPSGINDDYGQLKNFKKFKKVTYPGAGKLPHIIGGSDLIAHHARKNTELEEWLRQEMEVQNQHAKEESLADDLFRYNPYLKRRR
notes: wild-type Nbs1, component of the human MRN complex; expressed from transfer vector pTP288 / bacmid pTP291; Used apart from MR (added to MR complexes, coated on PMMA beads); source: Sf21 insect cells, baculovirus, purified

For one series, the target named is T1, ATM (Homo sapiens, UniProt Q13315, Y2755A).
T1 construct: full-length, Flag-tagged and HA-tagged, transiently expressed in human 293T cells, purified as dimer
T1 sequence (Q13315 2-3056 Y2755A): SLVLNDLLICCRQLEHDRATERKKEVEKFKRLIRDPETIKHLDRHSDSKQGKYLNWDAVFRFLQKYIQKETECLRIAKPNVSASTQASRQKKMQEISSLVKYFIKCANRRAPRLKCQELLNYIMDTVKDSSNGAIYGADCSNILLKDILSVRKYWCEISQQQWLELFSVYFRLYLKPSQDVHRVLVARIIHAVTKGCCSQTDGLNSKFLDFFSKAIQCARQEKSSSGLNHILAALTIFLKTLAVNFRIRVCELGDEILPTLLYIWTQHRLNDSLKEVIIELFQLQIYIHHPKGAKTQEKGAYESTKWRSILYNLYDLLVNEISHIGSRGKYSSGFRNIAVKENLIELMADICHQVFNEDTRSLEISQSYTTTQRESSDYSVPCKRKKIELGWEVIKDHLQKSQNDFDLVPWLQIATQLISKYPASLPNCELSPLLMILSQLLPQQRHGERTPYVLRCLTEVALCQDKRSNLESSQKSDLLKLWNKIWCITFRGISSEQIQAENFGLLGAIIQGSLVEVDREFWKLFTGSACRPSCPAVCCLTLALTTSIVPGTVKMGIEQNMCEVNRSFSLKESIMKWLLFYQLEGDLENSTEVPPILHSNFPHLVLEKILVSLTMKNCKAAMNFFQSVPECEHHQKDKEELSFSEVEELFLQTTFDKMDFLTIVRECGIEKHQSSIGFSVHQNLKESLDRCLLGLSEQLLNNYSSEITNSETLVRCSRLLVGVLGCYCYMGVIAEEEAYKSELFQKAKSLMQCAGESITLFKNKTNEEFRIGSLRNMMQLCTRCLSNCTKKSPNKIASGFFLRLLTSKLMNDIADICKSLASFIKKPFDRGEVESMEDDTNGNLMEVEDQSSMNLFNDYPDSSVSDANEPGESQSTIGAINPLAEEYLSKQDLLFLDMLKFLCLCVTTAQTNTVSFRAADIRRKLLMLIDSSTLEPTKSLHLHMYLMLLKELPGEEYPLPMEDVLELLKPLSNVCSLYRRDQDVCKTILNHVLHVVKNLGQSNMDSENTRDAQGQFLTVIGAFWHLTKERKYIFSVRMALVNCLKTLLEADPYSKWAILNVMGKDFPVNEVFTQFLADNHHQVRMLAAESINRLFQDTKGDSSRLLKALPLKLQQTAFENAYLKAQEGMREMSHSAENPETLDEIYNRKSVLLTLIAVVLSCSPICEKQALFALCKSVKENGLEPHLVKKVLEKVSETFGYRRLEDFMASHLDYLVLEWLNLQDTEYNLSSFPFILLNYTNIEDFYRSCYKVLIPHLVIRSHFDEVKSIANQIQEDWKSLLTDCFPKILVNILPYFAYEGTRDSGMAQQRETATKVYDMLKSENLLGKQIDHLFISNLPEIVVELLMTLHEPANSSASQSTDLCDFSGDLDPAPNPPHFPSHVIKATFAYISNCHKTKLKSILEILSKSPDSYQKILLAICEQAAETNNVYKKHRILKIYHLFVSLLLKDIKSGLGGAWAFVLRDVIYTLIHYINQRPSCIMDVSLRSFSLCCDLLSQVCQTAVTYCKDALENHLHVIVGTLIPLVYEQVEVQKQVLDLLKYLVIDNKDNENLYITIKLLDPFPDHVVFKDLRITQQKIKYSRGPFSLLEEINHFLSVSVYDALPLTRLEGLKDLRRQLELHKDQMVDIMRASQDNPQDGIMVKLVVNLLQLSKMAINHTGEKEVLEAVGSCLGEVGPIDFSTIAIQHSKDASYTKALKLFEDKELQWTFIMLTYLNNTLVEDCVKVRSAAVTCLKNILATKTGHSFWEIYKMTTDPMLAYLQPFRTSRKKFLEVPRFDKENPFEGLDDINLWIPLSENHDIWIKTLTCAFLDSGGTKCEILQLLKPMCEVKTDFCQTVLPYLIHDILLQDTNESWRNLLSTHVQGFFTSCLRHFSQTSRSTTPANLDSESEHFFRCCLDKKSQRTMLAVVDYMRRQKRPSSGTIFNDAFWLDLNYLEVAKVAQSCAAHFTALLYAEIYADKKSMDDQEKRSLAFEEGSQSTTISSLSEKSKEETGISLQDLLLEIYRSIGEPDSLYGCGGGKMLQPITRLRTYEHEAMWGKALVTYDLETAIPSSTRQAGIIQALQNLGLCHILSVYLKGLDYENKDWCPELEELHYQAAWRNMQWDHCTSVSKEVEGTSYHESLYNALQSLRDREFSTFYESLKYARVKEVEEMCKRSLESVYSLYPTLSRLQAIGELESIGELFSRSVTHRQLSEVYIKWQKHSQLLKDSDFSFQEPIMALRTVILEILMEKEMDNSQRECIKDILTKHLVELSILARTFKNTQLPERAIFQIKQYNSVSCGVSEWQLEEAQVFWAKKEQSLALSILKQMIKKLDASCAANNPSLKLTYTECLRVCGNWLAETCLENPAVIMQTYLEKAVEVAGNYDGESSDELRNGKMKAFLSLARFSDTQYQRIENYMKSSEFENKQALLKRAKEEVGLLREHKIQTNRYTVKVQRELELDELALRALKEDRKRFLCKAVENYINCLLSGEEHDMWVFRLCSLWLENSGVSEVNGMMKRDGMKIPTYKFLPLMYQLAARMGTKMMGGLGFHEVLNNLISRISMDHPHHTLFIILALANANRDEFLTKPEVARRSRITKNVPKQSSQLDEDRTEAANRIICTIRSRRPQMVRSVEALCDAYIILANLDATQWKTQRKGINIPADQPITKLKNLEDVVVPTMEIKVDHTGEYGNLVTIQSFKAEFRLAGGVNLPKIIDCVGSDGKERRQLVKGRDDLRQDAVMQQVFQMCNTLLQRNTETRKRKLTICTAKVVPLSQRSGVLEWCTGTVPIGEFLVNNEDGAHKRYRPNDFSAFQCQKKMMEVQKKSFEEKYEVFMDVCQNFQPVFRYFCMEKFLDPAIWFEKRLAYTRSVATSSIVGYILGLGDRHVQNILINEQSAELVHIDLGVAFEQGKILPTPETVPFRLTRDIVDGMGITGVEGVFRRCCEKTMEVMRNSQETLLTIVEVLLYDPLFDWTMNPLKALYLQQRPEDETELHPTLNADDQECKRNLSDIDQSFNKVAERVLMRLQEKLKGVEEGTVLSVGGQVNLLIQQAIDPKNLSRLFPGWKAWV
Nature of the series: kinase assay, GST-p53 Ser-15 phosphorylation, Western blot. In kind it is biochemical. The note with it: H2O2-activated ATM without MRN; analog 1 mM; pH 7.5, 5 mM Mg, 30 C.

In series [1] the target is Mre11/Rad50 (MR) complex, wild-type full-length (human) (UniProt P49959). Nature of the series: scanning force microscopy (SFM); protein alone: 3 nM human MR in 25 mM Tris-HCl pH 8.0, 10% glycerol, 100 mM NaCl, 1 mM DTT; diluted 5-fold in 10 mM HEPES pH 8.0, 20 mM MgCl2, deposited on mica, imaged in air by tapping mode; forms counted by the number of Rad50 coiled-coils.
Series [2] deals with Mre11/Rad50/Nbs1 (MRN) wild-type (human, UniProt P49959;Q92878;O60934 1-708;1-1312;1-754). Nature of the series: EMSA; 0.5 mM AMP-PNP, 5 mM MgCl2, Nbs1 present, 100-200 nM MR; EMSA (Fig. 6A): 10 nM DNA, 25 mM MOPS pH 7.0, 20 mM Tris pH 8.0, 5 mM MgCl2, 8% glycerol, 80 mM NaCl, 2 mM DTT, 0.5 mM AMP-PNP, temperature not stated; SFM: 25. The conditions noted are these: protein: recombinant; chain copies: 2;2;2; label: Cy5 at 3' end of TP2109; 41 bp duplex, 4 nt 3' overhang on strand 2, other end blunt. In general terms: Mobility shift assays separate free from complexed probe on a gel.

Another series has as its target MR(C2G)N (human, UniProt P49959;Q92878;O60934 1-708;1-1312;1-754, C681G;C684G;Rad50). Nature of the series: EMSA; 0.5 mM AMP-PNP, 5 mM MgCl2, Nbs1 present; altered mobility and complex formation efficiency vs WT; EMSA (Fig. 6A): 10 nM DNA, 25 mM MOPS pH 7.0, 20 mM Tris pH 8.0, 5 mM MgCl2, 8% glycerol, 80 mM NaCl, 2 mM DTT, 0.5 mM AMP-PNP, temperature not stated; SFM: 25. The conditions noted are these: protein: recombinant; chain copies: 2;2;1; label: Cy5 at 3' end of TP2109; 41 bp duplex, 4 nt 3' overhang on strand 2, other end blunt.

For series [3], the target named is B3. Kind of series: KinExA (kinetic exclusion assay); without ATP; 1, 5 and 25 nM MR incubated with 6.1 pM to 400 nM Nbs1 (2-fold dilutions) 1 h at room temperature; free MR captured on Nbs1-coated PMMA beads, detected with anti-Mre11 and Cy5 secondary antibody; PBS; n-Curve Analysis. The note with it: both partners purified. (A kinetic exclusion assay measures how much of one partner remains free in solution.)

Series [4] has as its target B3. Nature of the series: KinExA (kinetic exclusion assay); in the presence of ATP (concentration not stated); 1, 5 and 25 nM MR incubated with 6.1 pM to 400 nM Nbs1 (2-fold dilutions) 1 h at room temperature; free MR captured on Nbs1-coated PMMA beads, detected with anti-Mre11 and Cy5 secondary antibody; PBS; n-Curve Analysis. The note with it: both partners purified.
Series [5] has as its target T2, Mre11/Rad50 (MR) complex, wild-type full-length (human, UniProt P49959 1-708; Q92878 1-1312).
T2 construct: wild-type human Mre11, transfer vector pTP813 / bacmid pTP814; wild-type human Rad50, transfer vector pTP11; 1312 residues by the printed construct limits; The unit written here is one Mre11 with one Rad50; also called wild-type MR; human MR; source: Sf21 insect cells, coexpression with baculovirus, purified
Kind of series: KinExA (kinetic exclusion assay); without ATP; 1, 5 and 25 nM MR incubated with 6.1 pM to 400 nM Nbs1 (2-fold dilutions) 1 h at room temperature; free MR captured on Nbs1-coated PMMA beads, detected with anti-Mre11 and Cy5 secondary antibody; PBS; n-Curve Analysis. The conditions noted are these: both partners purified.

The target in series [6] is T3, Mre11/Rad50(C2G) complex (Rad50 C681G/C684G) (human, UniProt P49959 1-708; Q92878 1-1312, C681G | C684G). Nature of the series: -ATP.
Series [7] addresses T4, Mre11/Rad50(C2G) complex (Rad50 C681G/C684G) (human, UniProt P49959 1-708; Q92878 1-1312, C681G | C684G).
T4 construct: wild-type human Mre11 (pTP813), as the Mre11 chain of m2; human Rad50 with both zinc hook cysteines mutated; made by QuikChange mutagenesis from pTP11 (the wild-type Rad50 of m2); Zinc hook mutant; also called MR(C2G); C2G MR complex; source: Sf21 insect cells, coexpression with baculovirus, purified
Kind of series: KinExA (kinetic exclusion assay); in the presence of ATP (concentration not stated); 1, 5 and 25 nM MR incubated with 6.1 pM to 400 nM Nbs1 (2-fold dilutions) 1 h at room temperature; free MR captured on Nbs1-coated PMMA beads, detected with anti-Mre11 and Cy5 secondary antibody; PBS; n-Curve Analysis. The note with it: both partners purified.

For series [8], the target named is T2, Mre11/Rad50 (MR) complex, wild-type …. The series is described as above. The note with it: both partners purified.
The target in series [9] is T3, Mre11/Rad50(C2G) complex (Rad50 …. Nature of the series: +ATP.

Where “and” joins values, the source holds several entries; their conditions need not be identical. Identical values can stand only once.

With `O=P(O)(O)OP(=O)(O)OP(=O)(O)OC[C@H]1O[C@@H](n2cnc3c(NCc4ccco4)ncnc32)[C@H](O)[C@@H]1O` [N6-(furfuryl)-ATP, N6-furfuryladenosine-5′-O-triphosphate], the “kinase assay, GST-p53 Ser-15 phosphorylation, Western blot” value on ATM is “This nucleotide was utilized by Y2755A ATM but not by wild-type ATM”.
One may read the stoichiometry N as a count of units in the complex or per binding partner. On to “Mre11/Rad50 (MR) complex, wild-type full-length, P49959 1-708; Q92878 1-1312”, for which the stoichiometry N in [1] was 2 and > 4.

B1: TP2151/TP2109 (dsDNA)
DNA 1: CTTGCATGCCTCAGCTATTCCGGATTATTCATACCGTCCCA
DNA 2: TGGGACGGTATGAATAATCCGGAATAGCTGAGGCATGCAAGTCTA
As for B1, the binding result (in series [2]; with MR(C2G)N) was “binds” each time.

B2: Mre11/Rad50(DelCC) complex (Rad50 coiled-coil region replaced with a linker) (complex, human)
chain 1: MSTADALDDENTFKILVATDIHLGFMEKDAVRGNDTFVTLDEILRLAQENEVDFILLGGDLFHENKPSRKTLHTCLELLRKYCMGDRPVQFEILSDQSVNFGFSKFPWVNYQDGNLNISIPVFSIHGNHDDPTGADALCALDILSCAGFVNHFGRSMSVEKIDISPVLLQKGSTKIALYGLGSIPDERLYRMFVNKKVTMLRPKEDENSWFNLFVIHQNRSKHGSTNFIPEQFLDDFIDLVIWGHEHECKIAPTKNEQQLFYISQPGSSVVTSLSPGEAVKKHVGLLRIKGRKMNMHKIPLHTVRQFFMEDIVLANHPDIFNPDNPKVTQAIQSFCLEKIEEMLENAERERLGNSHQPEKPLVRLRVDYSGGFEPFSVLRFSQKFVDRVANPKDIIHFFRHREQKEKTGEEINFGKLITKPSEGTTLRVEDLVKQYFQTAEKNVQLSLLTERGMGEAVQEFVDKEEKDAIEELVKYQLEKTQRFLKERHIDALEDKIDEEVRRFRETRQKNTNEEDDEVREAMTRARALRSQSEESASAFSADDLMSIDLAEQMANDSDDSISAATNKGRGRGRGRRGGRGQNSASRGGSQRGRADTGLETSTRSRNSKTAVSASRNMSIIDAFKSTRQQPSRNVTTKNYSEVIEVDESDVEEDIFPTTSKTDQRWSSTSSSKIMSQSQVSKGVDFESSEDDDDDPFMNTSSLRRNRR
chain 2: MSRIEKMSILGVRSFGIEDKDKQIITFFSPLTILVGPNGAGKTTIIECLKYICTGDFPPGTKGNTFVHDPKVAQETDVRAQIRLQFRDVNGELIAVQRSMVCTQKSKKTEFKTLEGVITRTKHGEKVSLSSKCAEIDREMISSLGVSKAVLNNVIFCHQEDSNWPLSEGKALKQKFDEIFSATRYIKALETLRQVRQTQGQKVKEYQMELKYLKQYPPAAAGGYREMMIVMRTTELVNKDLDIYYKTLDQAIMKFHSMKMEEINKIIRDLWRSTYRGQDIEYIEIRSDADENVSASDKRRNYNYRVVMLKGDTALDMRGRCSAGQKVLASLIIRLALAETFCLNCGIIALDEPTTNLDRENIESLAHALVEIIKSRSQQRNFQLLVITHDEDFVELLGRSEYVEKFYRIKKNIDQCSEIVKCSVSSLGFNVH
notes: wild-type human Mre11 (pTP813), as the Mre11 chain of m2; human Rad50 N terminus, amino acids 1-216; linker peptide between the two Rad50 domains; human Rad50 C terminus, amino acids 1104-1312; The His tag is inferred from the vector name only; also called MR(DelCC); DelCC MR; source: Sf21 insect cells, coexpression with baculovirus (Bac-to-Bac), purified
For orientation: Kd means the concentration at which binding is half-saturated. With B2, the results for the Kd with Nbs1 (wild-type) [3] and with Nbs1 (wild-type) [4] were 17.7 nM and 0.0503 nM, respectively.
Take B3: the Kd in series [5] was determined as 0.00917 nM; in series [6], 7.3 nM; in series [8] it was 0.00382 nM; in series [9], 0.11 nM. For the same molecule, the “fold higher affinity in the presence of ATP than in the absence of ATP” value in series [7] was approximately 70 fold.
